Assay results taken from US5981483A, “Compositions comprising modulators of cytokines of the TGF-β superfamily” (Mount Sinai Hospital Corporation, priority 1997, dated 1999).
Where a SMILES comes first, the peptide text is derived from it. Bridges are numbered along the chain shown (N, C = ends). The star is where a group is joined. Cam = NC(=O)C*

Key:
[1] = test system: rat bone marrow stromal cells; assay: Dexamethasone-treated rat bone marrow stromal cell cultures (proliferation, mineralization, TGF-β levels); type: cell-based; settings: dexamethasone 10^-8 M, FIG. 17
Description: The methods used in the studies described in this example and illustrated in FIGS. 16 and 17 are as follows. Femoral bones were removed under aseptic conditions from adult male Wistar rats (120 g), cleaned of adherent soft tissues, and washed extensively in antibiotics. The distal ends were removed and the marrow contents were flushed out with 10 ml of culture medium. The cells were dispersed by repeated passage through a 20 gauge needle and incubated in alpha-MEM supplemented with 15% fetal bovine serum, ascorbic acid (50 μg/ml), antibiotics (penicillin G 100 μg/ml, gentamicin 50 μg/ml, fungizone 0.3 μg/ml) and 10 mM β-glycerophosphate. […] Following 6 days of culture at 37° C. in a humidified atmosphere containing 5% CO2 in air, the cells were re-plated at a density of 1×10^2 cell/mm^2 in 96 multi-well plates (Falcon 3047), and grown for another 12-14 days. At the end of culture, the cells were fixed and stained for calcium with alizarin red-s for quantification of bone nodule area (reported as mineralized area (mm^2)/well). To assess mineralized tissue formation in the cultures morphometric measurements were carried out with the aid of a Bioquant IV system (Bioquant, Nashville, Tenn., U.S.A.) using a Leitz Orthoplan microscope. TGF-β in culture supernatants taken 4 days prior to scoring mineralization were measured with and without heat activation (80° C. for 10 min) using the Mink cells as the indicator cell line as described in FIG. 12.

TGF-β1 [2] = biological target: T1, TGF-β1 (Homo sapiens, UniProt P01137); assay: BIAcore surface plasmon resonance, binding to immobilized TGF-β1; settings: for kass: ligand TGF-β1
T1 construct: The mature processed cytokines produced from the members of the gene family show almost 100% amino acid identity between species; purchased Collaborative Research (Bedford, Mass.)
T1 sequence (P01137 279-390 limits assumed): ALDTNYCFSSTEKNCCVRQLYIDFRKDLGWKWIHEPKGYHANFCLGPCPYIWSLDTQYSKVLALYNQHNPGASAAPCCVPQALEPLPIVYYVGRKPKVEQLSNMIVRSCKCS
Description: (§1) In this system, a purified protein serving as the ligand is covalently coupled to a carboxymethylated dextran surface, and binding molecules (i.e. the analyte) are passed in a fluid phase across the surface. Binding of the analyte to ligand causes a change in reflected light which is directly proportional to mass bound, and is measured in arbitrary response units (R.U.). Analyte-ligand binding is observed as both increasing response with time during the injection of analyte, and the difference in the position of the baseline before and after injection.
(§2) Schuster, R. V. Swanson, L. A. Alex, R. B. Bourret, M. I. Simon, Nature 365, 343 (1993). 1000 R.U. equals approximately 1 ng/mm^2. The running buffer was 20 mM Hepes (pH 7.2), 150 mM NaCl and the flow rate for all sensorgrams was 3 μl/min.
(§3) Regeneration of the surface to remove bound analyte was done by injection of 10 μl of 20 mM NaOH. To cyclize TRH1 peptides, the material was reduced with 5 mM DTT then brought to a final concentration of 60 μM in 25 mM ammonium acetate (pH 8.5). After stirring in the dark for 30 min at 20° C. with 30 mM potassium ferricyanide, the peptide was mixed with AG3-X4A resin (BioRad), filtered, lyophilization and desalted on a 50×2.5 cm column of Biogel P2 (Pharmacia) developed in water, and further purified by reverse phase HPLC.
(§4) Injection volumes were 36 μl for FIG. 2, 4 and 5 and 45 μl for FIG. 3. […] Protein concentrations in each experiment were (FIGS. 2 and 3), 2, 5, 10, 20, 30, 40 μM; (FIG. 4), 0.21, 0.31, 0.41, 0.62, 0.82, 1.24 μM; (FIG. 5), 0.22, 0.29, 0.44, 0.59, 0.88 μM. R.U. for the immobilized cytokine in each experiment was 2850 R.U. for FIGS. 2 and 3; 7450 R.U. for FIG. 4, and 5300 R.U., for FIG. 5 respectively.
(§5) Data was analyzed using the BIA-evaluation software (Pharmacia Biosensor). The association rate constant, kass, was calculated by first plotting the change in response with time versus response (i.e. dR/dT vs R). When the slope of the line from this graph is plotted versus analyte concentration (i.e d(dR/dT)/dR vs C), kass is obtained from the slope of the line. The dissociation rate constant, kdiss, is obtained during the decrease in response with time after analyte injection is discontinued. Specifically, kdiss was obtained from the slope of the line in a plot of ln(Rt1 /Rtn) vs time. The affinity constants were calculated from KD =kdiss /kass. Variance for kass is standard error of the linear regression plot, and for kdiss values are the mean ± range of 3 or more independent injections.

TGF-β1 binding to TβRII = biological target: T2, TGF-β1 binding to TβRII (Homo sapiens, UniProt P01137); assay: Competition of TGF-β1 binding to immobilized TβRII (Quantikine ELISA); settings: 40 pM TGF-β1; fetuin 40 μM, TRH1 peptide from TβRII 20 μM; FIG. 14
T2 construct: The mature processed cytokines produced from the members of the gene family show almost 100% amino acid identity between species; purchased R&D Systems
T2 sequence (P01137 279-390 limits assumed): as above
Description: Inhibition of TGF-β1 binding to TβRII was carried out using the Quantikine ELISA kit (R&D Systems). In particular, 96 well plates were pre-coated with the extracellular domain of TβRII. […] This was followed by a 5 minute incubation with the TβRII coated ELISA wells with shaking, washing as recommended, and a 1 hr incubation with the polyclonal anti-TGF-β1 antibody. Plates were developed as per the instructions, and determinations were made in triplicate.

BMP-2 = biological target: T3, BMP-2 (Homo sapiens, UniProt P12643); assay: BIAcore surface plasmon resonance, binding to immobilized BMP-2; settings: for kass: ligand BMP-2
T3 construct: Genetics Institute, Cambridge, Mass; (gift)
T3 sequence (P12643 283-396): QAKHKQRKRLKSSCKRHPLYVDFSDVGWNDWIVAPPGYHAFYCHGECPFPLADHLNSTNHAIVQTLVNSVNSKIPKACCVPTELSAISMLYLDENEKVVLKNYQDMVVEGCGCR
Description: as §1, §2, §3, §4, §5

BMP-4 = biological target: T4, BMP-4 (Homo sapiens, UniProt P12644); assay: BIAcore surface plasmon resonance, binding to immobilized BMP-4; settings: Table 1; ligand BMP-4
T4 sequence (P12644 293-408): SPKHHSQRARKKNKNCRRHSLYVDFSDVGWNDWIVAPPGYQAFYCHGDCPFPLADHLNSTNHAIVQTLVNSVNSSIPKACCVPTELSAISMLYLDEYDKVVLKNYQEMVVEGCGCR
Description: as §1, §2
Regeneration of the surface to remove bound analyte was done by injection of 10 μl of 20 mM NaOH. To cyclize TRH1 peptides, the material was reduced with 5 mM DTT then brought to a final concentration of 60 μM in 25 mM ammonium acetate (pH 8.5). […]
Data was analyzed using the BIA-evaluation software (Pharmacia Biosensor). The association rate constant, kass, was calculated by first plotting the change in response with time versus response (i.e. dR/dT vs R). […] The affinity constants were calculated from KD =kdiss /kass. […]

TGF-β2 = biological target: T5, TGF-β2 (Homo sapiens, UniProt P61812); assay: BIAcore surface plasmon resonance, binding to immobilized TGF-β2; settings: Table 1; ligand TGF-β2
T5 construct: The mature processed cytokines produced from the members of the gene family show almost 100% amino acid identity between species
T5 sequence (P61812 303-414 limits assumed): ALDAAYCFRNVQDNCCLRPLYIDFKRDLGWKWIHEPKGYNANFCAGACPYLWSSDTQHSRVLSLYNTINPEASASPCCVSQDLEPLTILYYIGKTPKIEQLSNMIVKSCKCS
Description: as §1, §2, §3
as §5, with “Variance for kass is standard error of the linear regression plot, and for kdiss values are the mean ± range of 3 or more independent injections.” left out

TGF-β1 [3] = biological target: T1, TGF-β1; assay: 3H-Thymidine incorporation in Mv1Lu cells: neutralization of the antiproliferative activity of TGF-β1; type: cell-based
Description: Mv1Lu cells were seeded at 20,000 cells/well in a 96 well plate containing 0.2% FCS in α-MEM and incubated with the indicated concentrations of proteins for 18 hr. The cells were then pulsed with 8 μCi/ml methyl-^3 H-thymidine (NEN, Boston, Mass.) for 6 hr. Cells were trypsinized, harvested onto filtermats and counted in a β-Counter. Percent neutralization is defined as incorporation in the presence of 12 pM TGF-β1 alone set at 0%, and incorporation without additions as 100%. The difference in ^3 H-thymidine incorporation between 0% and 100% was 7.5 fold. Each point in FIG. 1 and FIG. 12 represents the mean of duplicate determinations, and the results are representative of three experiments. […] Before use, bovine thyroglobulin was spun twice in a centricon (M.W. cutoff of 10,000 Da) micro-concentrator (Amicon, Beverly, Mass.) to remove any excess Iodine and T3/T4 thyroid hormones.

[4] = Table 2 (calculations repeated)

Compound: C[C@@H]1C[C@H]2[C@@H]3CCC4=CC(=O)C=C[C@]4(C)[C@@]3(F)[C@@H](O)C[C@]2(C)[C@@]1(O)C(=O)CO [Dexamethasone, dexamethasone, reference compound]
- increase of the fraction of active TGF-β in the cultures [1]: 3 fold

Compound: CC[C@H](C)[C@@H]1NC(=O)[C@H](CC(N)=O)NC(=O)[C@H](CCC(=O)O)NC(=O)[C@H](CC(=O)O)NC(=O)[C@H](CC(N)=O)NC(=O)[C@H](CCCCN)NC(=O)[C@H](CCCNC(=N)N)NC(=O)[C@H](Cc2c[nH]c3ccccc23)NC(=O)[C@H](C(C)C)NC(=O)[C@H](C)NC(=O)[C@H](C(C)C)NC(=O)[C@@H](N)CSSC[C@@H](C(=O)O)NC(=O)[C@H](C(C)C)NC(=O)[C@H]([C@@H](C)O)NC(=O)[C@H](CCC(=O)O)NC(=O)[C@H](CC(C)C)NC(=O)[C@H]([C@@H](C)O)NC1=O [TRH1b (TβRII)]
- kass (TGF-β1 [2]; Table 1): 3700 ± 2900 M⁻¹ s⁻¹
- kass (TGF-β1 [2]; [4]): 2200 ± 1300 M⁻¹ s⁻¹
- inhibition of TGF-β1 binding to immobilized recombinant TβRII (TGF-β1 binding to TβRII): competitive inhibitors

Compound: CC[C@H](C)[C@H](NC(=O)[C@H](CC(=O)O)NC(=O)[C@@H](N)CSCC(N)=O)C(=O)N[C@@H](Cc1c[nH]cn1)C(=O)N[C@H](C(=O)N[C@@H](CC(C)C)C(=O)N[C@@H](CCCCN)C(=O)N[C@@H](CCC(N)=O)C(=O)N[C@@H](CC(=O)O)C(=O)NCC(=O)N[C@@H](CCC(N)=O)C(=O)N[C@@H](Cc1ccccc1)C(=O)N[C@@H](CO)C(=O)N[C@H](C(=O)N[C@@H](CC(C)C)C(=O)N[C@@H](Cc1ccccc1)C(=O)N[C@H](C(=O)N[C@@H](CCCCN)C(=O)N[C@@H](CSCC(N)=O)C(=O)O)[C@@H](C)O)C(C)C)C(C)C [TRH1b (fetuin) (reduced & alkylated)] (H-C(Cam)DIHVLKQDGQFSVLFTKC(Cam)-OH; N-terminus and C-terminus assumed)
- binding to immobilized BMP-2 (in words) (BMP-2): no significant binding

Compound: CC[C@H](C)[C@@H]1NC(=O)[C@H](CC(=O)O)NC(=O)[C@@H](N)CSSC[C@@H](C(=O)O)NC(=O)[C@H](CCCCN)NC(=O)[C@H]([C@@H](C)O)NC(=O)[C@H](Cc2ccccc2)NC(=O)[C@H](CC(C)C)NC(=O)[C@H](C(C)C)NC(=O)[C@H](CO)NC(=O)[C@H](Cc2ccccc2)NC(=O)[C@H](CCC(N)=O)NC(=O)CNC(=O)[C@H](CC(=O)O)NC(=O)[C@H](CCC(N)=O)NC(=O)[C@H](CCCCN)NC(=O)[C@H](CC(C)C)NC(=O)[C@H](C(C)C)NC(=O)[C@H](Cc2c[nH]cn2)NC1=O [TRH1b (fetuin)] (H-CDIHVLKQDGQFSVLFTKC-OH; disulfide 1-19; N-terminus and C-terminus assumed)
- kass (BMP-2; [4]): 1300 ± 500 M⁻¹ s⁻¹
- Competition of fetuin-BMP-2 binding (BMP-2; co-injected with fetuin, data not shown, listed as fetuin TRH1b peptide): competed for fetuin-BMP-2 binding in a dose dependent manner

Compound: Thyroglobulin: Bovine thyroglobulin (Sigma), contains the TRH1 domain
- kass (BMP-4): 54000 ± 7000 M⁻¹ s⁻¹
- kass (TGF-β2): 1300 ± 600 M⁻¹ s⁻¹
- Maximal effect, percent neutralization (TGF-β1 [3]; 12 pM TGF-β1, FIG. 1): approximately 150%
- IC50 for inhibition of TGF-β1 activity, fold lower than for fetuin (TGF-β1 [3]; FIG. 1): 20 fold
- kass (BMP-2; Table 1): 32000 ± 2000 M⁻¹ s⁻¹

Compound: human transferrin: non-binding control protein [reference compound]
- binding to immobilized TGF-β1 (in words) (TGF-β1 [2]): non-binding

Compound: reduced and alkylated fetuin: fetuin, reduced and alkylated
- binding to immobilized TGF-β1 (in words) (TGF-β1 [2]): diminished binding
- binding to immobilized BMP-2 (in words) (BMP-2): diminished binding
